In article PMC9757075 (Nucleic Acids Research, 2022):
Like-named read-outs stand apart in the source and are kept apart here.

Columns and labels:
[1] = biological target: Selenomethionine variant of PorX, phosphorylated with acetyl phosphate (Porphyromonas gingivalis W83) (UniProt B2RJJ3); test: SEC-MALS
PorX [2] = test: SEC-MALLS absolute molecular weight; details: reference: PorX with MgCl2 alone; sites D58
PorX [3] = test: small-angle X-ray scattering in solution; details: reference: PorX without BeF3; sites D58
[4] = biological target: PorX (wild type, non-phosphorylated) (Porphyromonas gingivalis W83) (UniProt B2RJJ3); test: SAXS
[5] = biological target: PorX (wild type, non-phosphorylated) (Porphyromonas gingivalis W83) (UniProt B2RJJ3); test: SAXS; remark: listed apart in the source
crystal structure = biological target: the molecule itself; test: crystal structure
SEC [6] = biological target: the molecule itself; test: SEC
SEC [7] = biological target: the molecule itself; test: SEC; remark: listed apart in the source

Molecule: Selenomethionine variant of PorX, phosphorylated with acetyl phosphate (from UniProt B2RJJ3 1-518) (natural protein)
- stoichiometry N [1]: 2

Molecule: PorX PorX pre-incubated with AcP and MgCl2
- other: MALLS molecular weight (PorX [2]): gained; reference 70.2

Molecule: PorX PorX with BeF3 and MgCl2
- other: radius of gyration (PorX [3]): gained; reference 29.6

Molecule: PorX (wild type, non-phosphorylated) (from UniProt B2RJJ3 1-518) (natural protein)
- stoichiometry N [4]: 2
- stoichiometry N [5]: 2

B1: PorX T272A, selenomethionine variant (T272A-pGpG crystal) (natural protein, Porphyromonas gingivalis W83)
chain: MEKNMRPYTVLWADDEIDLLKPHILFLEQKGYQVTPVLSGNDAIEALQNNDFDIVFLDENMPGIGGLDALQKIKELKPYTPVVMITKSEEEHIMTQAIGGKIADYLIKPVNPNQLLLSLKKNLQQHSIISETTNTNYRQEFVQLGAQMSGKLSFEEWKELYRRIVFWEIELEQADRQMGELLEMQKQEANRLFARFVTQNYREWIAKPDTRPTMSPDLFKQKVFPLLDNGEKVFFILIDNFRQDQWESVKSMLSEFYTFEEDMYLSILPTAAQYARNAIFSGLMPLQIEKMFPDLWVDEESEEGKNLNEEPMIRTLIERYRKHYSFSYNKVYETKFGERLLGQIRSLSQNQLNVIVLNFVDMMSHARTDSKMIRELASNEAAYRSLTKSWFKHSTTYNLFRSIAEMGYKVVLTTDHGTIQVKNPVKVIGDRSTNTNLRYKIGKNLDYNPKEVFEIKDPASVGLPHNNLSDKFIFTKEDDFFAYPNNYNYYVQYYRNTFQHGGISLEEMLVPVITMQPK
modifications: selenomethionine
- binding result (crystal structure): binds

B2: PorX T272A (natural protein, Porphyromonas gingivalis W83)
chain: B1 chain
- binding result (SEC [6]): binds

B3: PorX T272A incubated with acetyl phosphate (phosphorylated) (natural protein, Porphyromonas gingivalis W83)
chain: B1 chain
modifications: phosphorylated with acetyl phosphate (attenuated against the wild type)
- binding result (SEC [7]): binds
